US20180251489A1

target: mucosa-associated lymphoid tissue lymphoma translocation protein 1 (UniProt Q9UDY8); assay: enzyme inhibition assay, 100 nM MALT1
Sequence (Q9UDY8 340-789): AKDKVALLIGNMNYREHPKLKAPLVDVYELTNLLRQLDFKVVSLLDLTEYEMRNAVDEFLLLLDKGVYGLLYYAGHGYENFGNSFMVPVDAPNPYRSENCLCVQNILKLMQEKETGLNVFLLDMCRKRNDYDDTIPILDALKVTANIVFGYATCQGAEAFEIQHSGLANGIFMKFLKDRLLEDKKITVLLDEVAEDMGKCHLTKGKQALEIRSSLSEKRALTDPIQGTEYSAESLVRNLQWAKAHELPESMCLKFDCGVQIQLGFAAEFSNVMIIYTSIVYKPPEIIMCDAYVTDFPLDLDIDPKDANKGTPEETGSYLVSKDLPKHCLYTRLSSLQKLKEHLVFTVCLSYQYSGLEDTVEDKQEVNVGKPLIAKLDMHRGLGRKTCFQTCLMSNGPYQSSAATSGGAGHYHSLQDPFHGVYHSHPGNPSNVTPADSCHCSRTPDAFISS

Substance | Ki [nM]
(S)-1-((1-naphthoyl)-L-valyl)-N-((S)-1-fluoro-6-guanidino-2-oxohexan-3-yl)pyrrolidine-2-carboxamide (peptide) | 102
(S)-3-((4-Bromobenzoyl)-L-valyl)-N-((S)-1-fluoro-6-guanidino-2-oxohexan-3-yl)oxazolidine-4-carboxamide (peptide) | 20
Benzyl ((S)-2-((S)-2-(((S)-1-fluoro-6-guanidino-2-oxohexan-3-yl)carbamoyl)pyrrolidin-1-yl)-2-oxo-1-phenylethyl)carbamate (peptide) | 154
N-((S)-1-((S)-2-(((S)-1-fluoro-6-guanidino-2-oxohexan-3-yl)carbamoyl)pyrrolidin-1-yl)-3-methyl-1-oxobutan-2-yl)isoquinoline-7-carboxamide (peptide) | 110
(S)-1-((4-bromo-3-cyanobenzoyl)-L-valyl)-N-((S)-1-fluoro-6-guanidino-2-oxohexan-3-yl)pyrrolidine-2-carboxamide (peptide) | 13
(S)-1-(((2-Chlorophenyl)carbamoyl)-L-valyl)-N-((S)-1-fluoro-6-guanidino-2-oxohexan-3-yl)pyrrolidine-2-carboxamide (peptide) | 24
(S)-N-((S)-1-fluoro-6-guanidino-2-oxohexan-3-yl)-1-((3-morpholinobenzoyl)-L-valyl)pyrrolidine-2-carboxamide (peptide) | 58
(S)-N-((S)-1-Fluoro-6-guanidino-2-oxohexan-3-yl)-1-((2-methoxybenzoyl)-L-valyl)pyrrolidine-2-carboxamide (peptide) | 109
Benzyl ((S)-1-((S)-2-(((S)-1-fluoro-6-guanidino-2-oxohexan-3-yl)carbamoyl)pyrrolidin-1-yl)-1-oxo-3-phenylpropan-2-yl)carbamate (peptide) | 76
(S)-1-((S)-2-(4-Bromobenzamido)-3-cyclohexylpropanoyl)-N-((S)-1-fluoro-6-guanidino-2-oxohexan-3-yl)pyrrolidine-2-carboxamide (peptide) | 122
(S)-1-((2-Bromobenzoyl)-L-valyl)-N-((S)-1-fluoro-6-guanidino-2-oxohexan-3-yl)pyrrolidine-2-carboxamide (peptide) | 105
(S)-1-((3-Bromobenzoyl)-L-valyl)-N-((S)-1-fluoro-6-guanidino-2-oxohexan-3-yl)pyrrolidine-2-carboxamide (peptide) | 41
(S)-N-((S)-1-fluoro-6-guanidino-2-oxohexan-3-yl)-1-((4-(trifluoromethyl)benzoyl)-L-valyl)pyrrolidine-2-carboxamide (peptide) | 132
(S)-1-((Cyclohexanecarbonyl)-L-valyl)-N-((S)-1-fluoro-6-guanidino-2-oxohexan-3-yl)pyrrolidine-2-carboxamide (peptide) | 56
(S)-1-((S)-2-(4-bromobenzamido)-2-cyclohexylacetyl)-N-((S)-1-fluoro-6-guanidino-2-oxohexan-3-yl)pyrrolidine-2-carboxamide (peptide) | 45
4-Bromo-N-((S)-1-cyclohexyl-2-(((S)-1-(((S)-1-fluoro-6-guanidino-2-oxohexan-3-yl)amino)-3-hydroxy-1-oxopropan-2-yl)amino)-2-oxoethyl)benzamide (peptide) | 46
N-((S)-1-((S)-2-(((S)-1-fluoro-6-guanidino-2-oxohexan-3-yl)carbamoyl)pyrrolidin-1-yl)-3-methyl-1-oxobutan-2-yl)quinoline-4-carboxamide (peptide) | 139
(2S,4R)-1-((4-Bromobenzoyl)-L-valyl)-N-((S)-1-fluoro-6-guanidino-2-oxohexan-3-yl)-4-hydroxypyrrolidine-2-carboxamide (peptide) | 50

Substance | Ki [nM]
(S)-1-(((4-Bromophenyl)sulfonyl)-L-valyl)-N-((S)-1-fluoro-6-guanidino-2-oxohexan-3-yl)pyrrolidine-2-carboxamide (peptide) | 66
(S)-N-((S)-1-fluoro-6-guanidino-2-oxohexan-3-yl)-1-((3-(4-methylpiperazin-1-yl)benzoyl)-L-valyl)pyrrolidine-2-carboxamide (peptide) | 175
Benzyl ((S)-1-((S)-2-(((S)-1-fluoro-6-guanidino-2-oxohexan-3-yl)carbamoyl)pyrrolidin-1-yl)-3,3-dimethyl-1-oxobutan-2-yl)carbamate (peptide) | 43
4-Chlorobenzyl ((S)-1-((S)-2-(((S)-1-fluoro-6-guanidino-2-oxohexan-3-yl)carbamoyl)pyrrolidin-l-yl)-3-methyl-1-oxobutan-2-yl)carbamate (peptide) | 32
N-((S)-1-((S)-2-(((S)-1-fluoro-6-guanidino-2-oxohexan-3-yl)carbamoyl)pyrrolidin-1-yl)-3-methyl-1-oxobutan-2-yl)isoquinoline-6-carboxamide (peptide) | 59
Benzyl ((S)-1-cyclohexyl-2-((S)-2-(((S)-1-fluoro-6-guanidino-2-oxohexan-3-yl)carbamoyl)piperidin-1-yl)-2-oxoethyl)carbamate (peptide) | 37
(S)-1-(((3-Chlorophenyl)carbamoyl)-L-valyl)-N-((S)-1-fluoro-6-guanidino-2-oxohexan-3-yl)pyrrolidine-2-carboxamide (peptide) | 27
(S)-1-((4-chloro-3-cyanobenzoyl)-L-valyl)-N-((S)-1-fluoro-6-guanidino-2-oxohexan-3-yl)pyrrolidine-2-carboxamide (peptide) | 24
(S)-1-((3-acetamidobenzoyl)-L-valyl)-N-((S)-1-fluoro-6-guanidino-2-oxohexan-3-yl)pyrrolidine-2-carboxamide (peptide) | 54
(S)-1-((2-naphthoyl)-L-valyl)-N-((S)-1-fluoro-6-guanidino-2-oxohexan-3-yl)pyrrolidine-2-carboxamide (peptide) | 47
N-((S)-1-((S)-2-(((S)-1-Fluoro-6-guanidino-2-oxohexan-3-yl)carbamoyl)pyrrolidin-1-yl)-3-methyl-1-oxobutan-2-yl)-2-methylthiazole-4-carboxamide (peptide) | 52
(S)-N-((S)-1-Fluoro-6-guanidino-2-oxohexan-3-yl)-1-((2-phenylacetyl)-L-valyl)pyrrolidine-2-carboxamide (peptide) | 42
(S)-N-((S)-1-fluoro-6-guanidino-2-oxohexan-3-yl)-1-((4-(trifluoromethoxy)benzoyl)-L-valyl)pyrrolidine-2-carboxamide (peptide) | 27
N-((S)-1-((S)-2-(((S)-1-Fluoro-6-guanidino-2-oxohexan-3-yl)carbamoyl)pyrrolidin-1-yl)-3-methyl-1-oxobutan-2-yl)-1-methyl-1H-pyrazole-4-carboxamide (peptide) | 100
(S)-N-((S)-1-Fluoro-6-guanidino-2-oxohexan-3-yl)-1-((4-methoxybenzoyl)-L-valyl)pyrrolidine-2-carboxamide (peptide) | 50
(S)-1-(([1,1′-biphenyl]-4-carbonyl)-L-valyl)-N-((S)-1-fluoro-6-guanidino-2-oxohexan-3-yl)pyrrolidine-2-carboxamide (peptide) | 30
N-((S)-1-((S)-2-(((S)-1-fluoro-6-guanidino-2-oxohexan-3-yl)carbamoyl)pyrrolidin-1-yl)-3-methyl-1-oxobutan-2-yl)quinoline-2-carboxamide (peptide) | 55
(S)-4-((4-Bromobenzoyl)-L-valyl)-N-((S)-1-fluoro-6-guanidino-2-oxohexan-3-yl)morpholine-3-carboxamide (peptide) | 70
